Measured values: paper PMC11293870

Target: T1, LKB1-3xFlag (pcDNA3.1-LKB1-3xFlag) (human) (UniProt Q15831)
T1 sequence: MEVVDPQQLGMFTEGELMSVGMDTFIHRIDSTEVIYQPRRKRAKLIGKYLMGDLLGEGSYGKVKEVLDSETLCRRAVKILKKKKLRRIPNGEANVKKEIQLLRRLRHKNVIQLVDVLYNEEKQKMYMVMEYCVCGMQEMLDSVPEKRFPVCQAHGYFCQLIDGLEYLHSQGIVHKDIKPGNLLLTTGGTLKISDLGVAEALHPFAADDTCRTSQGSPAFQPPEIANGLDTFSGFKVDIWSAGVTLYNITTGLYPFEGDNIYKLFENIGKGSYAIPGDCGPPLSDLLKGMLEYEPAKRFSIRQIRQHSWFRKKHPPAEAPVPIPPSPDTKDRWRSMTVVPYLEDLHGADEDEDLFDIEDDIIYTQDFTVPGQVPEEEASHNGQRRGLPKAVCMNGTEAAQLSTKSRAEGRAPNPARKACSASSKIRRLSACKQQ

STRADα KinCon reporter bioluminescence (intramolecular RLuc PCA, closing of the conformation) on co-expression of LKB1 and MO25; HEK293T, 48 hr of expression (also HeLa and SW480): > 10 fold
B1: STRADα-KinCon (pcDNA3.1-F[1]-STRADα-F[2]) (natural protein)
chain: MSFLVSKPERIRRWVSEKFIVEGLRDLELFGEQPPGDTRRKTNDASSESIASFSKQEVMSSFLPEGGCYELLTVIGKGFEDLMTVNLARYKPTGEYVTVRRINLEACSNEMVTFLQGELHVSKLFNHPNIVPYRATFIADNELWVVTSFMAYGSAKDLICTHFMDGMNELAIAYILQGVLKALDYIHHMGYVHRSVKASHILISVDGKVYLSGLRSNLSMISHGQRQRVVHDFPKYSVKVLPWLSPEVLQQNLQGYDAKSDIYSVGITACELANGHVPFKDMPATQMLLEKLNGTVPCLLDTSTIPAEELTMSPSRSVANSGLSDSLTTSTPRPSNGDSPSHPYHRTFSPHFHHFVEQCLQRNPDARPSASTLLNHSFFKQIKRRASEALPELLRPVTPITNFEGSQSQDHSGIFGLVTNLEELEVDDWEF
